Measurements from the supplement of paper PMC10065799, “High-throughput profiling of sequence recognition by tyrosine kinases and SH2 domains using bacterial peptide display” (eLife, 2023).

System: Fer (mouse)
Test: phosphorylation enrichment, bacterial display (enrichment ratio); higher = better substrate or ligand; peptides without Tyr show the background
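Also: 11-residue human phosphosite peptides and single-mutation variants displayed on the E. coli surface, counted by deep sequencing, each peptide's frequency after selection divided by its frequency in the unselected input library; frequency after pTyr selection over input frequency; kinase dosed for 20-30% of maximal phosphorylation in three min.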

Sequence	phosphorylation enrichment
AKKKMYSLKTK [AGXT_Y231_R233L]	0.373
ERFSYYGMKAV [SLC15A2_Y61]	0.386
QDEHGYISWCF [HSPB1_Y133_R136W]	1.05
RLGLQYSQGLV [EIF2B4_Y214]	0.654
CTTIHYMFMCN [TP53_Y234_N235M_YF]	0.555
MFFSTYDRDND [FGB_Y408]	0.501
QEALEYFMKQM [PIK3CA_Y1038]	0.584
KGSEGYLAATY [NF1_Y2503]	0.457
KGIDRYNPENL [EIF3K_Y21]	0.372
VDASFCGGRGV [ANTXR2_Y381_Y381C_YF]	0.49
ESKAGYRVPRS [CLDN7_Y195]	0.52
EAGKVYLKAAM [CBFB_Y96_P100A]	0.568
VHNLNYFKKTT [FGFR3_Y647_D646N_YF]	0.346
TACNPYKPPGP	0.449
NNDLCYWVLEL [IARS1_Y434_P437L]	1.33
KVGNGYISAAE [CALM2_Y100_D96V]	0.476
YETSHYLASPD [CTNND2_Y1217_P1218L]	0.685

Sequence	phosphorylation enrichment
CTTIQYNFMCN [TP53_Y234_H233Q_YF]	0.485
FQNSLYAPDYS [FAM92A_Y226_R222Q]	1.6
ELTAKYLNYYQ [P3H4_Y181]	0.445
RPIEVYLCPEE [E2F3_Y349_G344R]	0.938
GEDDVYDSVPG [FGR_opt_2018]	0.861
MYQVQYNSSVD [LRFN1_Y458]	0.52
TFEYRYLEDQD [CNOT3_Y746_R750Q]	0.518
FSLIHYAGIVD [MYH7_Y582]	0.387
QRIHDYFEHRF [HCN4_Y554_YF]	0.872
FKEQGYHRLPP [RIN1_Y681_YF]	0.363
RSRQIYDAFIM [GRK3_Y109_YF]	9.57
LSSEMCVKSYT [F5_Y2149_Y2149C]	1.46
KIMVIYDGACQ [VWDE_Y1035_T1032M]	0.897
FRRITYFNWRH [PDE6B_Y556_H557Y_YF]	0.423
WEPFGFAVTRC [PTPRT_Y412_Y412F]	0.548
NAGAFYVLSTL [FLVCR2_Y325_A326V]	0.525

Biological target: Jak2 (UniProt O60674)
Sequence (O60674 whole entry, looked up): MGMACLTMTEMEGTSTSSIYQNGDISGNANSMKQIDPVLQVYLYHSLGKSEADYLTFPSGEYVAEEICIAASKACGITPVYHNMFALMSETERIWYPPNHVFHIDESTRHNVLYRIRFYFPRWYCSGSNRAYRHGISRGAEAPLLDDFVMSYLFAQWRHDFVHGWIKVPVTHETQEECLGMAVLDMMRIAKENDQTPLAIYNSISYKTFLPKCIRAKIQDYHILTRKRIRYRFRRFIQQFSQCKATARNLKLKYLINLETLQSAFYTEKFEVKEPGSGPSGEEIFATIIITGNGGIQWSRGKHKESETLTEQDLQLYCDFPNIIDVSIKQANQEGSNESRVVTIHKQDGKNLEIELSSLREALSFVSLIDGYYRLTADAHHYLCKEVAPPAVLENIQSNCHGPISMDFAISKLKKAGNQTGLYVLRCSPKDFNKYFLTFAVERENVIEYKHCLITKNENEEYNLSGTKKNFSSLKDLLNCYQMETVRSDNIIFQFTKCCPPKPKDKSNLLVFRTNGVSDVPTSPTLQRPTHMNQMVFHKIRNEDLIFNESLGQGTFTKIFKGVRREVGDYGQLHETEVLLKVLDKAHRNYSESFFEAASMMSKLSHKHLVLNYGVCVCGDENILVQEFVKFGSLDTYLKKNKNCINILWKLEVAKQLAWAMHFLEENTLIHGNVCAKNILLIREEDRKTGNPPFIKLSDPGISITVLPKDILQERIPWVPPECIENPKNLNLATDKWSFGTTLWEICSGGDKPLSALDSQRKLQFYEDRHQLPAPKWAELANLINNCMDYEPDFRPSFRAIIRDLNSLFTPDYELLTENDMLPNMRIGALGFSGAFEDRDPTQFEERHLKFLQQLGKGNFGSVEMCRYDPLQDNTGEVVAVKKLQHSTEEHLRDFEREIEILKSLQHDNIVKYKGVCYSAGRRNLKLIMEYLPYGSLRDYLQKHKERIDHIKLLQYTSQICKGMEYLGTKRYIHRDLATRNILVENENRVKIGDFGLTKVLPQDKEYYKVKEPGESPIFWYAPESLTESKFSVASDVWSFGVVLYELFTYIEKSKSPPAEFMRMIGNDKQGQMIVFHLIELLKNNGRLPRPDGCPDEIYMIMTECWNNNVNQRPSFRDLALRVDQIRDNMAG
Test: as above

Sequence	phosphorylation enrichment
AKKKMYSLKTK [AGXT_Y231_R233L]	0.795
ERFSYYGMKAV [SLC15A2_Y61]	4.66
QDEHGYISWCF [HSPB1_Y133_R136W]	2.61
RLGLQYSQGLV [EIF2B4_Y214]	1.19
CTTIHYMFMCN [TP53_Y234_N235M_YF]	1.02
MFFSTYDRDND [FGB_Y408]	1.03
QEALEYFMKQM [PIK3CA_Y1038]	1.49
KGSEGYLAATY [NF1_Y2503]	0.627
KGIDRYNPENL [EIF3K_Y21]	0.449
VDASFCGGRGV [ANTXR2_Y381_Y381C_YF]	0.894
ESKAGYRVPRS [CLDN7_Y195]	0.524
EAGKVYLKAAM [CBFB_Y96_P100A]	1.26
VHNLNYFKKTT [FGFR3_Y647_D646N_YF]	0.467
TACNPYKPPGP	0.521
NNDLCYWVLEL [IARS1_Y434_P437L]	3.65
KVGNGYISAAE [CALM2_Y100_D96V]	0.485
YETSHYLASPD [CTNND2_Y1217_P1218L]	0.809

Sequence	phosphorylation enrichment
CTTIQYNFMCN [TP53_Y234_H233Q_YF]	0.853
FQNSLYAPDYS [FAM92A_Y226_R222Q]	0.945
ELTAKYLNYYQ [P3H4_Y181]	0.715
RPIEVYLCPEE [E2F3_Y349_G344R]	3.12
GEDDVYDSVPG [FGR_opt_2018]	0.946
MYQVQYNSSVD [LRFN1_Y458]	0.721
TFEYRYLEDQD [CNOT3_Y746_R750Q]	0.916
FSLIHYAGIVD [MYH7_Y582]	0.765
QRIHDYFEHRF [HCN4_Y554_YF]	0.575
FKEQGYHRLPP [RIN1_Y681_YF]	0.877
RSRQIYDAFIM [GRK3_Y109_YF]	0.359
LSSEMCVKSYT [F5_Y2149_Y2149C]	2.4
KIMVIYDGACQ [VWDE_Y1035_T1032M]	1.83
FRRITYFNWRH [PDE6B_Y556_H557Y_YF]	0.852
WEPFGFAVTRC [PTPRT_Y412_Y412F]	1.4
NAGAFYVLSTL [FLVCR2_Y325_A326V]	0.995

Biological target: Hck (UniProt P08631)
Sequence (P08631 whole entry, looked up): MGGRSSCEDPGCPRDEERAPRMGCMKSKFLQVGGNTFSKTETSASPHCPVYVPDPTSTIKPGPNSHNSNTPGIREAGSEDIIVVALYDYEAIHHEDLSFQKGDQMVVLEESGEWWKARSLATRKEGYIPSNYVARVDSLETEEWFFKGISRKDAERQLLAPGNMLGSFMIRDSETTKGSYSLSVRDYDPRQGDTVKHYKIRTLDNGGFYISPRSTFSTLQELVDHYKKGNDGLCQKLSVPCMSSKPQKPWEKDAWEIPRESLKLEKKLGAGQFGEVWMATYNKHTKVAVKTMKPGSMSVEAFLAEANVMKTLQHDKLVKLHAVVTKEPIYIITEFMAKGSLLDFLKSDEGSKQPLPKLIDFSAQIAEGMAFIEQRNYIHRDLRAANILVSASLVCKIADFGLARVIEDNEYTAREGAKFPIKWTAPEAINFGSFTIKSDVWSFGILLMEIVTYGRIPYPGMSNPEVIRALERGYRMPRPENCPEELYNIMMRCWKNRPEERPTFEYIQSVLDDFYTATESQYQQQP
Test: as above

Sequence	phosphorylation enrichment
AKKKMYSLKTK [AGXT_Y231_R233L]	0.44
ERFSYYGMKAV [SLC15A2_Y61]	1.37
QDEHGYISWCF [HSPB1_Y133_R136W]	0.944
RLGLQYSQGLV [EIF2B4_Y214]	0.588
CTTIHYMFMCN [TP53_Y234_N235M_YF]	0.552
MFFSTYDRDND [FGB_Y408]	0.511
QEALEYFMKQM [PIK3CA_Y1038]	0.39
KGSEGYLAATY [NF1_Y2503]	0.46
KGIDRYNPENL [EIF3K_Y21]	0.384
VDASFCGGRGV [ANTXR2_Y381_Y381C_YF]	0.539
ESKAGYRVPRS [CLDN7_Y195]	0.416
EAGKVYLKAAM [CBFB_Y96_P100A]	0.494
VHNLNYFKKTT [FGFR3_Y647_D646N_YF]	0.347
TACNPYKPPGP	0.384
NNDLCYWVLEL [IARS1_Y434_P437L]	4.01
KVGNGYISAAE [CALM2_Y100_D96V]	0.393
YETSHYLASPD [CTNND2_Y1217_P1218L]	0.554

Sequence	phosphorylation enrichment
CTTIQYNFMCN [TP53_Y234_H233Q_YF]	0.611
FQNSLYAPDYS [FAM92A_Y226_R222Q]	1.46
ELTAKYLNYYQ [P3H4_Y181]	0.493
RPIEVYLCPEE [E2F3_Y349_G344R]	1.04
GEDDVYDSVPG [FGR_opt_2018]	1.37
MYQVQYNSSVD [LRFN1_Y458]	0.505
TFEYRYLEDQD [CNOT3_Y746_R750Q]	0.637
FSLIHYAGIVD [MYH7_Y582]	0.458
QRIHDYFEHRF [HCN4_Y554_YF]	0.527
FKEQGYHRLPP [RIN1_Y681_YF]	0.456
RSRQIYDAFIM [GRK3_Y109_YF]	6.86
LSSEMCVKSYT [F5_Y2149_Y2149C]	0.877
KIMVIYDGACQ [VWDE_Y1035_T1032M]	1.49
FRRITYFNWRH [PDE6B_Y556_H557Y_YF]	0.832
WEPFGFAVTRC [PTPRT_Y412_Y412F]	0.456
NAGAFYVLSTL [FLVCR2_Y325_A326V]	0.476

Biological target: MERTK (UniProt Q12866)
Sequence (Q12866 whole entry, looked up): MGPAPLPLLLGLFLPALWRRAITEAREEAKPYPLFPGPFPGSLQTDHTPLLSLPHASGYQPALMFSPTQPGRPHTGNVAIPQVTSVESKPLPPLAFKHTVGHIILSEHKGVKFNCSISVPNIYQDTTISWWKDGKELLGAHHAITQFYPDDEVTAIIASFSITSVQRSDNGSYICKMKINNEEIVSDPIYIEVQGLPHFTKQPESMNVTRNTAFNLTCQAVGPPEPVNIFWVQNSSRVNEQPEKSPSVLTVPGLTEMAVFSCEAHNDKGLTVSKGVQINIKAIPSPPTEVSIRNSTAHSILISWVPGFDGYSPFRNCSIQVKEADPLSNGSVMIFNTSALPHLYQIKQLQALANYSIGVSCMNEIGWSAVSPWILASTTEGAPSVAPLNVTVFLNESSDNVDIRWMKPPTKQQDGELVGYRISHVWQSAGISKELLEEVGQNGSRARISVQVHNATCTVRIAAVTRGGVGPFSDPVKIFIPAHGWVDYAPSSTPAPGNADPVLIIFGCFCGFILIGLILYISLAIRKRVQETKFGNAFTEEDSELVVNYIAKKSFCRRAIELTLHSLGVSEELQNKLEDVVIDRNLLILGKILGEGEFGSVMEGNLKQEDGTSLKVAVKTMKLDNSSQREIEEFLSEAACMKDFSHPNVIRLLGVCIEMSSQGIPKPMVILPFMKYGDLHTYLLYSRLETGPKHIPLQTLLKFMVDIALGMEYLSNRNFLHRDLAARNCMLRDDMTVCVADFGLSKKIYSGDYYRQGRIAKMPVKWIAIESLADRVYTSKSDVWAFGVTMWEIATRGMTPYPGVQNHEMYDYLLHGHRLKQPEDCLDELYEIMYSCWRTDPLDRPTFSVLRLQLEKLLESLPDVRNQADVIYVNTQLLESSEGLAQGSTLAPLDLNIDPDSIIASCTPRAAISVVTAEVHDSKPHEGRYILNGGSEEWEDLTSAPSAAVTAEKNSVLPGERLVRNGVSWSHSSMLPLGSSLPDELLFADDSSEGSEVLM
Test: as above

Sequence	phosphorylation enrichment
AKKKMYSLKTK [AGXT_Y231_R233L]	0.435
ERFSYYGMKAV [SLC15A2_Y61]	0.9
QDEHGYISWCF [HSPB1_Y133_R136W]	0.8
RLGLQYSQGLV [EIF2B4_Y214]	0.365
CTTIHYMFMCN [TP53_Y234_N235M_YF]	0.367
MFFSTYDRDND [FGB_Y408]	0.408
QEALEYFMKQM [PIK3CA_Y1038]	0.584
KGSEGYLAATY [NF1_Y2503]	0.355
KGIDRYNPENL [EIF3K_Y21]	0.414
VDASFCGGRGV [ANTXR2_Y381_Y381C_YF]	0.396
ESKAGYRVPRS [CLDN7_Y195]	0.339
EAGKVYLKAAM [CBFB_Y96_P100A]	0.333
VHNLNYFKKTT [FGFR3_Y647_D646N_YF]	0.311
TACNPYKPPGP	0.393
NNDLCYWVLEL [IARS1_Y434_P437L]	2.33
KVGNGYISAAE [CALM2_Y100_D96V]	0.42
YETSHYLASPD [CTNND2_Y1217_P1218L]	0.784

Sequence	phosphorylation enrichment
CTTIQYNFMCN [TP53_Y234_H233Q_YF]	0.438
FQNSLYAPDYS [FAM92A_Y226_R222Q]	5.57
ELTAKYLNYYQ [P3H4_Y181]	0.977
RPIEVYLCPEE [E2F3_Y349_G344R]	0.975
GEDDVYDSVPG [FGR_opt_2018]	0.544
MYQVQYNSSVD [LRFN1_Y458]	0.699
TFEYRYLEDQD [CNOT3_Y746_R750Q]	0.44
FSLIHYAGIVD [MYH7_Y582]	0.339
QRIHDYFEHRF [HCN4_Y554_YF]	0.447
FKEQGYHRLPP [RIN1_Y681_YF]	0.377
RSRQIYDAFIM [GRK3_Y109_YF]	7.46
LSSEMCVKSYT [F5_Y2149_Y2149C]	1.1
KIMVIYDGACQ [VWDE_Y1035_T1032M]	0.519
FRRITYFNWRH [PDE6B_Y556_H557Y_YF]	0.615
WEPFGFAVTRC [PTPRT_Y412_Y412F]	0.399
NAGAFYVLSTL [FLVCR2_Y325_A326V]	0.705
